Measurements: the supplement of paper PMC9112550, “Optimization of the antimicrobial peptide Bac7 by deep mutational scanning” (BMC Biology, 2022)

What follows are sequences tested on Escherichia coli TOP10 (assay: shrunken log2 fold change of peptide-encoding DNA abundance (4.5 h post-induction vs induction); higher = less antimicrobial activity (less host growth inhibition)). Details: time post-induction: 4.5 h; library: site-saturation at positions 5, 18, 19, 20.
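Also: peptides expressed intracellularly from a pBAD plasmid library in pooled LB shake-flask culture, induced with 0.3% L-arabinose, DNA abundance read by NGS, three biological replicates, DESeq2 with apeglm shrinkage.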

RRIRHRPPRLPRPRPRPGGSPRP and RRIRHRPPRLPRPRPRPQQSPRP are within 0.2 log units of each other in “shrunken log2 fold change” value: -0.0606 for the first, -0.0132 for the second.

First: RRIRNRPPRLPRPRPRPKFNPRP
Second: RRIRCRPPRLPRPRPRPMLRPRP
The “shrunken log2 fold change” value of the first is lower: -0.569 for the first, 0.184 for the second.

RRIRKRPPRLPRPRPRPLNMPRP and RRIRERPPRLPRPRPRPGWCPRP are within 0.2 log units of each other in “shrunken log2 fold change” value: 0.0134 for the first, 0.00111 for the second.

First: RRIRPRPPRLPRPRPRPHYDPRP
Second: RRIRVRPPRLPRPRPRPDGYPRP
The “shrunken log2 fold change” value of the first is lower: -0.459 for the first, -0.00884 for the second.

RRIRMRPPRLPRPRPRPHFEPRP and RRIRYRPPRLPRPRPRPHIRPRP are within 0.2 log units of each other in “shrunken log2 fold change” value: -0.0874 for the first, -0.206 for the second.

Going from RRIRGRPPRLPRPRPRPGERPRP to RRIRLRPPRLPRPRPRPAAHPRP, the “shrunken log2 fold change” value falls from 0.731 to 0.163.

RRIRRRPPRLPRPRPRPDMNPRP and RRIRKRPPRLPRPRPRPVMDPRP are within 0.2 log units of each other in “shrunken log2 fold change” value: -0.00608 for the first, -0.0489 for the second.

Compared with RRIRCRPPRLPRPRPRPTREPRP, RRIRMRPPRLPRPRPRPHSVPRP is lower in “shrunken log2 fold change” value: 0.684 for the first, 0.0764 for the second.

RRIRSRPPRLPRPRPRPAYRPRP and RRIRRRPPRLPRPRPRPKYIPRP are within 0.2 log units of each other in “shrunken log2 fold change” value: -0.154 for the first, -0.135 for the second.

First: RRIRKRPPRLPRPRPRPATWPRP
Second: RRIRFRPPRLPRPRPRPFMNPRP
The “shrunken log2 fold change” value of the first is higher: 0.573 for the first, -0.03 for the second.

First: RRIRNRPPRLPRPRPRPMIGPRP
Second: RRIRRRPPRLPRPRPRPSLMPRP
The “shrunken log2 fold change” value of the first is lower: -0.536 for the first, -0.0626 for the second.

First: RRIRGRPPRLPRPRPRPPRFPRP
Second: RRIRVRPPRLPRPRPRPMMIPRP
The “shrunken log2 fold change” value of the first is higher: 1.04 for the first, -0.131 for the second.

Compared with RRIRVRPPRLPRPRPRPNNNPRP, RRIRKRPPRLPRPRPRPFPTPRP is higher in “shrunken log2 fold change” value: -0.661 for the first, 2.75 for the second.

Going from RRIRLRPPRLPRPRPRPEMFPRP to RRIRHRPPRLPRPRPRPPRCPRP, the “shrunken log2 fold change” value rises from -0.00904 to 0.526.

Compared with RRIRNRPPRLPRPRPRPDVYPRP, RRIRNRPPRLPRPRPRPSEQPRP is lower in “shrunken log2 fold change” value: -0.0277 for the first, -0.288 for the second.

RRIRDRPPRLPRPRPRPHQAPRP and RRIRGRPPRLPRPRPRPNGYPRP are within 0.2 log units of each other in “shrunken log2 fold change” value: -0.0175 for the first, -0.00669 for the second.

First: RRIRDRPPRLPRPRPRPANQPRP
Second: RRIRHRPPRLPRPRPRPSGCPRP
The “shrunken log2 fold change” value of the first is higher: 0.253 for the first, -0.162 for the second.

Compared with RRIRVRPPRLPRPRPRPDCAPRP, RRIRMRPPRLPRPRPRPRKIPRP is higher in “shrunken log2 fold change” value: 0.0509 for the first, 0.322 for the second.

Going from RRIRGRPPRLPRPRPRPFGEPRP to RRIRMRPPRLPRPRPRPKDSPRP, the “shrunken log2 fold change” value rises from 0.793 to 1.66.

RRIRCRPPRLPRPRPRPNFGPRP and RRIRSRPPRLPRPRPRPGTEPRP are within 0.2 log units of each other in “shrunken log2 fold change” value: -0.0314 for the first, 0.0221 for the second.

Compared with RRIRMRPPRLPRPRPRPTIFPRP, RRIRDRPPRLPRPRPRPPEAPRP is higher in “shrunken log2 fold change” value: -0.0388 for the first, 0.479 for the second.

RRIRHRPPRLPRPRPRPRVQPRP and RRIRMRPPRLPRPRPRPGKPPRP are within 0.2 log units of each other in “shrunken log2 fold change” value: 0.054 for the first, 0.0496 for the second.

RRIRDRPPRLPRPRPRPYCKPRP and RRIRGRPPRLPRPRPRPYAPPRP are within 0.2 log units of each other in “shrunken log2 fold change” value: 0.0343 for the first, 0.116 for the second.

First: RRIRIRPPRLPRPRPRPFVEPRP
Second: RRIRSRPPRLPRPRPRPWVTPRP
The “shrunken log2 fold change” value of the first is higher: -0.37 for the first, -0.89 for the second.

RRIRFRPPRLPRPRPRPEEIPRP and RRIRTRPPRLPRPRPRPDTEPRP are within 0.2 log units of each other in “shrunken log2 fold change” value: 0.0025 for the first, -0.072 for the second.

First: RRIRIRPPRLPRPRPRPEFAPRP
Second: RRIRFRPPRLPRPRPRPSVGPRP
The “shrunken log2 fold change” value of the first is higher: 0.452 for the first, -0.453 for the second.

Going from RRIRVRPPRLPRPRPRPVFFPRP to RRIRWRPPRLPRPRPRPLLAPRP, the “shrunken log2 fold change” value rises from -0.0099 to 1.03.

RRIRIRPPRLPRPRPRPSGYPRP and RRIRARPPRLPRPRPRPRHIPRP are within 0.2 log units of each other in “shrunken log2 fold change” value: 0.00435 for the first, -0.177 for the second.

Compared with RRIRRRPPRLPRPRPRPYCQPRP, RRIRMRPPRLPRPRPRPPMYPRP is higher in “shrunken log2 fold change” value: -0.664 for the first, -0.0977 for the second.

RRIRTRPPRLPRPRPRPIDVPRP and RRIRSRPPRLPRPRPRPPCQPRP are within 0.2 log units of each other in “shrunken log2 fold change” value: -0.0217 for the first, -0.0943 for the second.

Going from RRIRHRPPRLPRPRPRPQCGPRP to RRIRGRPPRLPRPRPRPIPCPRP, the “shrunken log2 fold change” value rises from -0.333 to 0.184.

Compared with RRIRHRPPRLPRPRPRPRPNPRP, RRIRPRPPRLPRPRPRPFVKPRP is lower in “shrunken log2 fold change” value: 0.321 for the first, -0.133 for the second.

Compared with RRIRLRPPRLPRPRPRPCYCPRP, RRIRPRPPRLPRPRPRPKATPRP is higher in “shrunken log2 fold change” value: -0.219 for the first, 0.463 for the second.

RRIRNRPPRLPRPRPRPQHPPRP and RRIRVRPPRLPRPRPRPWMAPRP are within 0.2 log units of each other in “shrunken log2 fold change” value: -0.325 for the first, -0.338 for the second.

Going from RRIRGRPPRLPRPRPRPPWGPRP to RRIRHRPPRLPRPRPRPVDWPRP, the “shrunken log2 fold change” value falls from 0.651 to 0.15.

Going from RRIRYRPPRLPRPRPRPCDLPRP to RRIRDRPPRLPRPRPRPRGIPRP, the “shrunken log2 fold change” value rises from -0.618 to -0.0372.

RRIRERPPRLPRPRPRPPMPPRP and RRIRRRPPRLPRPRPRPLVPPRP are within 0.2 log units of each other in “shrunken log2 fold change” value: 0.0249 for the first, 0.175 for the second.

First: RRIRARPPRLPRPRPRPMQCPRP
Second: RRIRVRPPRLPRPRPRPERNPRP
The “shrunken log2 fold change” value of the first is higher: 0.0593 for the first, -0.323 for the second.

First: RRIRRRPPRLPRPRPRPESMPRP
Second: RRIRNRPPRLPRPRPRPYSKPRP
The “shrunken log2 fold change” value of the first is higher: 0.358 for the first, -0.926 for the second.

First: RRIRERPPRLPRPRPRPTCYPRP
Second: RRIRLRPPRLPRPRPRPVTFPRP
The “shrunken log2 fold change” value of the first is lower: -0.673 for the first, -0.0737 for the second.

Compared with RRIRARPPRLPRPRPRPILRPRP, RRIRPRPPRLPRPRPRPRAYPRP is lower in “shrunken log2 fold change” value: 0.0733 for the first, -0.13 for the second.

RRIRIRPPRLPRPRPRPICLPRP and RRIRLRPPRLPRPRPRPIGTPRP are within 0.2 log units of each other in “shrunken log2 fold change” value: -0.197 for the first, -0.0773 for the second.

RRIRSRPPRLPRPRPRPDEGPRP and RRIRVRPPRLPRPRPRPLMDPRP are within 0.2 log units of each other in “shrunken log2 fold change” value: 0.0432 for the first, -0.0628 for the second.

First: RRIRPRPPRLPRPRPRPRCKPRP
Second: RRIRIRPPRLPRPRPRPNDYPRP
The “shrunken log2 fold change” value of the first is higher: 0.215 for the first, -0.312 for the second.

Going from RRIRVRPPRLPRPRPRPACNPRP to RRIRGRPPRLPRPRPRPHSEPRP, the “shrunken log2 fold change” value rises from -0.0138 to 0.194.

Going from RRIRYRPPRLPRPRPRPAQLPRP to RRIRARPPRLPRPRPRPCARPRP, the “shrunken log2 fold change” value rises from -0.392 to 0.786.

RRIRFRPPRLPRPRPRPFEEPRP and RRIRERPPRLPRPRPRPNVKPRP are within 0.2 log units of each other in “shrunken log2 fold change” value: -0.119 for the first, -0.195 for the second.

Compared with RRIRPRPPRLPRPRPRPSEIPRP, RRIRHRPPRLPRPRPRPLCKPRP is higher in “shrunken log2 fold change” value: -0.261 for the first, 0.0111 for the second.

Compared with RRIRQRPPRLPRPRPRPPKAPRP, RRIRDRPPRLPRPRPRPGHPPRP is higher in “shrunken log2 fold change” value: -0.058 for the first, 0.813 for the second.

Compared with RRIRIRPPRLPRPRPRPMIIPRP, RRIRDRPPRLPRPRPRPFWPPRP is higher in “shrunken log2 fold change” value: -0.295 for the first, 0.227 for the second.

RRIRMRPPRLPRPRPRPWNSPRP and RRIRKRPPRLPRPRPRPRYVPRP are within 0.2 log units of each other in “shrunken log2 fold change” value: -0.00149 for the first, 0.0611 for the second.

Compared with RRIRDRPPRLPRPRPRPKGKPRP, RRIRSRPPRLPRPRPRPFLKPRP is lower in “shrunken log2 fold change” value: 0.142 for the first, -0.632 for the second.

Going from RRIRFRPPRLPRPRPRPCRIPRP to RRIRHRPPRLPRPRPRPESTPRP, the “shrunken log2 fold change” value rises from -2.21 to 0.0536.

First: RRIRDRPPRLPRPRPRPCESPRP
Second: RRIRYRPPRLPRPRPRPYYEPRP
The “shrunken log2 fold change” value of the first is higher: -0.00192 for the first, -0.28 for the second.

In the case of RRIRERPPRLPRPRPRPLCCPRP, the “shrunken log2 fold change” value is reported as -0.191.
